{"source": "paper PMC2857461", "about": "(The EMBO Journal, 2010)", "key": {"cross-linking": {"target": "the molecule itself", "assay": "cross-linking"}, "AUC": {"target": "the molecule itself", "assay": "AUC"}}, "data": [{"protein": "His‐CT2 (domain or fragment, human, UniProt Q13563 680-968, looked up) INDTYSEVKSDLAQQKAEMELSDLIRKGYHKALVKLKLKKNTVDDISESLRQGGGKLNFDELRQDLKGKGHTDAEIEAIFTKYDQDGDQELTEHEHQQMRDDLEKEREDLDLDHSSLPRPMSSRSFPRSLDDSEEDDDEDSGHSSRRRGSISSGVSYEEFQVLVRRVDRMEHSIGSIVSKIDAVIVKLEIMERAKLKRREVLGRLLDGVAEDERLGRDSEIHREQMERLVREELERWESDDAASQISHGLGTPVGLNGQPRPRSSRPSSSQSTEGMEGAGGNGSSNVHV", "values": [{"measurement": "stoichiometry N", "setting": "cross-linking", "result": 4}, {"measurement": "stoichiometry N", "setting": "AUC", "result": 2}]}]}
